Measured values taken from the supplement of paper PMC10567573.
± gives the standard deviation.

Assay: protein stability index of a GFP-peptide fusion (GPS, HEK-293T) (PSI 1-6); higher = more stable
Conditions: c terminus: a fixed tail appended
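Also: 24-mer peptide tiles fused after GFP, lentivirally expressed, FACS-sorted into six equal bins by GFP/DsRed ratio, decoded by Illumina sequencing, PSI is the read-weighted mean bin number.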

Sequence | protein stability index (treatment: DMSO) | protein stability index (treatment: MLN4924 1 uM, 8 h)
RNLDASPTYKGLLMSLQNQLKESK [CEP70] | 3.19 ± 0.083 | 3.36 ± 0.25
LVQLPNINRVSTCYSEEITVCGDL [PPEF2] | 2.42 ± 0.42 | 2.65 ± 0.44
SPPVMVAGGRVFVLPCIQQIQRIS [FLOT1] | 2.15 ± 0.5 | 1.96 ± 0.27
GVSSVDSAFSSRGSLSLSFEREPS [RIPK4] | 4.33 ± 0.77 | 4.8 ± 0.52
PRRFTFYPCVLATEGFTSGRHYWE [TRIM39] | 2.31 ± 0.51 | 2.19 ± 0.13
VTSIHKYMVRRYFNKPSRVPAPEA [MYORG] | 2.42 ± 0.14 | 2.38 ± 0.3
KQNPGKFCLLSCGILTFLAVLGRY [RETREG3] | 2.33 ± 0.55 | 2.54 ± 0.37
TEELIVQTKQVYDAVGMLGIEEVT [NLN] | 4.23 ± 0.17 | 4.1 ± 0.45
PKPSGLEPGPAAYGLKPLTPNSKY [KCTD13] | 4.42 ± 0.23 | 4.22 ± 0.26
ELLATGDKGGRVVIFQREQESKNQ [PPP2R2B] | 3.79 ± 0.82 | 3.91 ± 0.34
TALTSFCAKYTYPVCSALLDPVLQ [FANCE] | 2.31 ± 0.37 | 2.23 ± 0.35
ASTSTPSSTLVRPIRSRRALPPLR [FAM189A2] | 4.16 ± 0.17 | 4.21 ± 0.21
DLGNACWVHKHFTEDIQTRQYRSI [SRPK2] | 2.61 ± 0.23 | 2.72 ± 0.11
TWMLEVCEEQKCEEEVFPLAMNYL [CCND2] | 2.84 ± 0.23 | 2.89 ± 0.3
MPPGLHHQRKYTQSFCGENIMMPM [ZNF207] | 2.29 ± 0.6 | 2.27 ± 0.34
CRTYIIHYYLMDDTVEIREVHERN [EFHC1] | 2.55 ± 0.38 | 2.39 ± 0.29

Sequence | protein stability index (treatment: DMSO) | protein stability index (treatment: MLN4924 1 uM, 8 h)
FRGQILGFWEEERPFWEEEKTFWK [CCDC70] | 2.25 ± 0.33 | 2.28 ± 0.31
DIHITARIESDLTLESLSDEEIHP [DRICH1] | 4.85 ± 0.2 | 4.91 ± 0.19
PRRESLLRGLCRPLRPLLGFRESD [C6orf223] | 2.36 ± 0.46 | 2.13 ± 0.43
KELRKDYQGPGTRRLQEVLGVQTG [DYRK1B] | 4.07 ± 0.16 | 4.42 ± 0.17
YQSGGRIRRPVNVPIDIFSEEIRF [KCNA3] | 2.49 ± 0.43 | 3.11 ± 0.37
NRDEVLDNLLAFVCDIRPEIHENY [ATP6V1G1] | 2.49 ± 0.51 | 2.71 ± 0.37
RYISMSVWTSPRRLVELAGQSLLK [PRAME] | 2.89 ± 0.1 | 2.96 ± 1.2
APLTISRVHAGSKAALAALCPGDL [PDLIM4] | 3.62 ± 0.37 | 3.65 ± 0.28
TVEKDESHAGKVVLRSWYEKNKHI [FAM50A] | 3.74 ± 0.33 | 3.87 ± 0.18
FYKREMFDPAEKYKMDHRRRGIAL [CASP6] | 2.84 ± 0.2 | 2.78 ± 0.26
TGEDSAFQEPDSPLPPARSPTEPG [WEE1] | 5.62 ± 0.15 | 5.44 ± 0.34
ALEQGGLRAATMSAVEAATCRAKE [PYCR3] | 4.68 ± 0.3 | 4.96 ± 0.14
AKHRLVPPAQGRVSRRLSPRKVST [TRIM9] | 4.37 ± 0.23 | 4.65 ± 0.12
NKKAKRYLLHGLECVVAMHQAQLI [EIF5] | 3.02 ± 0.47 | 2.5 ± 0.4
DLPPPPADPVLDLPLPPPPPEPLS [APBB1IP] | 5.39 ± 0.3 | 5.33 ± 0.18
LVDVRQEQLQGFNTRVRELAQAAG [DNAAF3] | 3.67 ± 0.55 | 3.67 ± 0.29
